What was measured:
[1] = target: T1, HER3 on SK-BR-3 cell surface (UniProt P21860 20-1342, limits assumed); assay: FACS on SK-BR-3 cells, anti-human IgG Fc-Alexa Fluor 647 detection
T1 construct: whole, on cells; The target is the HER3 carried on SK-BR-3 cells; also called surface HER3 of SK-BR-3 cells; SK-BR-3 cells expressing HER3

human HER3-his [2] = target: T2, human HER3-his (human, UniProt P21860 20-643); assay: indirect ELISA, huHER3-his coated at 0.5 µg/mL, goat anti-human IgG Fc-HRP
T2 construct: Coating antigen of the ELISA; also called huHER3-his; antigen human HER3-his; not shown: his tag

human HER3-his [3] = target: T2, human HER3-his; assay: indirect ELISA, huHER3-his coated at 0.5 µg/mL; antibody 0.001 nM; replicate 1
human HER3-his [4] = target: T2, human HER3-his; assay: indirect ELISA, huHER3-his coated at 0.5 µg/mL; antibody 0.001 nM; replicate 2
human HER3-his [5] = target: T2, human HER3-his; assay: indirect ELISA, huHER3-his coated at 0.5 µg/mL; antibody 0.004 nM; replicate 1
human HER3-his [6] = target: T2, human HER3-his; assay: indirect ELISA, huHER3-his coated at 0.5 µg/mL; antibody 0.004 nM; replicate 2
human HER3-his [7] = target: T2, human HER3-his; assay: indirect ELISA, huHER3-his coated at 0.5 µg/mL; antibody 0.012 nM; replicate 1
human HER3-his [8] = target: T2, human HER3-his; assay: indirect ELISA, huHER3-his coated at 0.5 µg/mL; antibody 0.012 nM; replicate 2
human HER3-his [9] = target: T2, human HER3-his; assay: indirect ELISA, huHER3-his coated at 0.5 µg/mL; antibody 0.037 nM; replicate 1
human HER3-his [10] = target: T2, human HER3-his; assay: indirect ELISA, huHER3-his coated at 0.5 µg/mL; antibody 0.037 nM; replicate 2
human HER3-his [11] = target: T2, human HER3-his; assay: indirect ELISA, huHER3-his coated at 0.5 µg/mL; antibody 0.111 nM; replicate 1
human HER3-his [12] = target: T2, human HER3-his; assay: indirect ELISA, huHER3-his coated at 0.5 µg/mL; antibody 0.111 nM; replicate 2
human HER3-his [13] = target: T2, human HER3-his; assay: indirect ELISA, huHER3-his coated at 0.5 µg/mL; antibody 0.333 nM; replicate 1
human HER3-his [14] = target: T2, human HER3-his; assay: indirect ELISA, huHER3-his coated at 0.5 µg/mL; antibody 0.333 nM; replicate 2
human HER3-his [15] = target: T2, human HER3-his; assay: indirect ELISA, huHER3-his coated at 0.5 µg/mL; antibody 1.000 nM; replicate 1
human HER3-his [16] = target: T2, human HER3-his; assay: indirect ELISA, huHER3-his coated at 0.5 µg/mL; antibody 1.000 nM; replicate 2
human HER3-his [17] = target: T2, human HER3-his; assay: indirect ELISA, huHER3-his coated at 0.5 µg/mL; antibody 0 nM (blank, background); replicate 1
human HER3-his [18] = target: T2, human HER3-his; assay: indirect ELISA, huHER3-his coated at 0.5 µg/mL; antibody 0 nM (blank, background); replicate 2

B1: anti-HER3 monoclonal antibody patritumab (antibody, human IgG1, kappa, V domains shown)
VH: QVQLQQWGAGLLKPSETLSLTCAVYGGSFSGYYWSWIRQPPGKGLEWIGEINHSGSTNYNPSLKSRVTISVETSKNQFSLKLSSVTAADTAVYYCARDKWTWYFDLWGRGTLVTVSS
VL: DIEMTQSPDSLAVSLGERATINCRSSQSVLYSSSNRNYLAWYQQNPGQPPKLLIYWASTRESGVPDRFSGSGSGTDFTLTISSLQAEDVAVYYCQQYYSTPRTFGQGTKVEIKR
notes: IgG1/kappa, expressed in 293F cells; also called HER3-targeted monoclonal antibody patritumab
With B1 the EC50 [1] was 8.48 nM, the EC50 (human HER3-his [2]) was 9 pM and the “absorbance at 450 nm” value (human HER3-his [3]) was 0.382 OD450. The “absorbance at 450 nm” value (human HER3-his [4]) was 0.394 OD450, the “absorbance at 450 nm” value (human HER3-his [5]) was 0.87 OD450 and the “absorbance at 450 nm” value (human HER3-his [6]) was 0.872 OD450. The “absorbance at 450 nm” value (human HER3-his [7]) was 1.78 OD450, the “absorbance at 450 nm” value (human HER3-his [8]) was 1.77 OD450 and the “absorbance at 450 nm” value (human HER3-his [9]) was 2.57 OD450. The “absorbance at 450 nm” value (human HER3-his [10]) was 2.57 OD450, the “absorbance at 450 nm” value (human HER3-his [11]) was 2.83 OD450 and the “absorbance at 450 nm” value (human HER3-his [12]) was 2.79 OD450. For the same binder, the “absorbance at 450 nm” value (human HER3-his [13]) was 2.89 OD450, the “absorbance at 450 nm” value (human HER3-his [14]) was 2.86 OD450 and the “absorbance at 450 nm” value (human HER3-his [15]) was 2.87 OD450. The “absorbance at 450 nm” value (human HER3-his [16]) was 2.84 OD450, the “absorbance at 450 nm” value (human HER3-his [17]) was 0.091 OD450 and the “absorbance at 450 nm” value (human HER3-his [18]) was 0.087 OD450.
